Results reported in US20240218374.
pKd: −log10 of the molar value.

Biological target: Spike S1 & S2 ECD (SARS-CoV-2) (UniProt P0DTC2)
Test: filter
[1] = Y=Tyr-dU, p=Nap-dC, SB18T0.01, 37 C

## GGGANANNANGNGNNNGANNGNNNGGANG [26874-29_146]
MBndU at 5, other dU Tyr-dU, dC Nap-dC, low plateau
  pKd: 9.21

## NANNANGNGNNNGANNGNNNGGANG [26874-29_24]
[1]
  pKd: 8.68

## GGGANANNANGNGNNNGANNGNNNGGANG [26874-29_117]
POPdU at 5, other dU Tyr-dU, dC Nap-dC, SB18T0.01, 37 C
  pKd: 9.38

## GNGNAANGNANNNNANNNGGNNNGAANGNG [26876-13_15]
[1]
  pKd: 9.59

## GGGANANNANGNGNNNGANNGNNNGGANG [26874-29_109]
2NapdU at 8, other dU Tyr-dU, dC Nap-dC, SB18T0.01, 37 C
  pKd: 9.32

## GGGANANNANGNGNNNGANNGNNNGGANG [26874-29_54]
FBndU at 23, other dU Tyr-dU, dC Nap-dC, SB18T0.01, 37 C
  pKd: 9.68

## GGGANANNANGNGNNNGANNGNNNGGANG [OH-26874-29_331]
Y=Tyr-dU, p=Nap-dC, position 28 DPP-dC, protein construct inferred
  pKd: 9.89

## NANNANGNGNNNGANNGNNNGGANGG [26874-29_22]
[1]
  pKd: 8.85

## GGGANANNANGNGNNNGANNGNNNGGANG [OH-26874-29_182]
2Nap-dC at 12, other dC Nap-dC, dU Tyr-dU
  pKd: 9.39

## GGGANANNANGNGNNNGANNGNNNGGANG [26874-29_140]
iBudU at 10, other dU Tyr-dU, dC Nap-dC, SB18T0.01, 37 C
  pKd: 9.33

## GGGANANNANGNGNNNGANNGNNNGGANG [26874-29_147]
BPEdU at 5, other dU Tyr-dU, dC Nap-dC, assigned, low plateau
  pKd: 9.36

## GGGANANNANGNGNNNGANNGNNNGGANG [26874-29_91]
BFdU at 14 (Table 6B says PPdU), other dU Tyr-dU, dC Nap-dC, SB18T0.01, 37 C
  pKd: 9.77

## GGGANANNANGNGNNNGANNGNNNGGANG [26874-29_120]
BTdU at 10, other dU Tyr-dU, dC Nap-dC, SB18T0.01, 37 C
  pKd: 9.62

## GGGANANNANGNGNNNGANNGNNNGGANG [26874-29_119]
Y=Tyr-dU, p=Nap-dC, position 8 POP-dU, value curated as assigned, Kd/Kd_20 1656
  pKd: 6.30

## GGGANANNANGNGNNNGANNGNNNGGANG [26874-29_65]
BndU at 23, other dU Tyr-dU, dC Nap-dC, SB18T0.01, 37 C
  pKd: 9.55

## GGGANANNANGNGHNNGANNGNNNGGANG [26874-29_100]
ThdU at 14 as printed (same as _102; position 10 probably meant), other dU Tyr-dU, dC Nap-dC, SB18T0.01, 37 C
  pKd: 9.31

## GGGANANNANGNGNNNGANNGNNNGGANG [26874-29_52]
Y=Tyr-dU, p=Nap-dC, position 14 FBn-dU, Kd/Kd_20 0.27
  pKd: 9.96

## GGGANANNANGNGNNNGANNGNNNGGANG [26874-29_81]
PEdU at 10, other dU Tyr-dU, dC Nap-dC, SB18T0.01, 37 C
  pKd: 9.80

## GGGANANNANGNGNRNGANNGNNNGGANG [OH-26874-29_192]
Y=Tyr-dU, p=Nap-dC, position 15 PP-dC, protein construct inferred
  pKd: 6.00

## GGGANANNANGNGNNNGANNGNNNGGANG [26874-29_64]
TrpdU at 23, other dU Tyr-dU, dC Nap-dC, SB18T0.01, 37 C
  pKd: 9.57

## GGGANANNANGNGNNNGANNGNNNGGANG [26874-29_60]
Y=Tyr-dU, p=Nap-dC, position 10 Trp-dU, Kd/Kd_20 0.24
  pKd: 10.01

## GGGANANNANGNGNNNGANNGNNNGGANG [26874-29_63]
BndU at 14, other dU Tyr-dU, dC Nap-dC, SB18T0.01, 37 C
  pKd: 9.80

## GGGANANNANGNGNNNGANNGNNNGGANG [26874-29_76]
NEdU at 5, other dU Tyr-dU, dC Nap-dC, SB18T0.01, 37 C
  pKd: 9.34

## GGGANANNANGNGNNNGANNGNNNGGANG [OH-26874-29_330]
Y=Tyr-dU, p=Nap-dC, position 24 DPP-dC, protein construct inferred
  pKd: 9.96

## GGGANANNANGNGNNNGANNGNNNGGANG [26874-29_47]
NapdU at 5, other dU Tyr-dU, dC Nap-dC, SB18T0.01, 37 C
  pKd: 9.51

## GGGANANNANGNGNNNGANNGNNNGGANG [26874-29_49]
NapdU at 8, other dU Tyr-dU, dC Nap-dC, SB18T0.01, 37 C
  pKd: 9.40

## GGGANANNANGNGNNNGANNGNNNGGANG [26874-29_93]
PPdU at 14, other dU Tyr-dU, dC Nap-dC, SB18T0.01, 37 C
  pKd: 9.62

## GGGANANNANGNGNNNGANNGNNNGGANG [26874-29_61]
BndU at 10, other dU Tyr-dU, dC Nap-dC, SB18T0.01, 37 C
  pKd: 9.51

## GGGACANNANGNGNNNGANNGNNNGGANG [26874-29_127]
c3 (not defined) at 5, other dU Tyr-dU, dC Nap-dC, SB18T0.01, 37 C
  pKd: 9.55

## GGGANANNANGNGNNNGANNGNNNGGANG [26874-29_112]
MOEdU at 14, other dU Tyr-dU, dC Nap-dC, SB18T0.01, 37 C
  pKd: 9.25

## GGGANANHANGNGNNNGANNGNNNGGANG [26874-29_98]
ThdU at 8, other dU Tyr-dU, dC Nap-dC, SB18T0.01, 37 C
  pKd: 9.66

## GGGANANNANGNGNNNGANNGNNNGGANG [26874-29_79]
PEdU at 8, other dU Tyr-dU, dC Nap-dC, SB18T0.01, 37 C
  pKd: 9.77

## GGGANANNANGNGNNNGANNGNNNGGANG [OH-26874-29_333]
Y=Tyr-dU, p=Nap-dC, position 12 DCPE-dC, protein construct inferred
  pKd: 9.96

## ANNANGNGNNNGANNGNNNGGANGG [26874-29_23]
[1]
  pKd: 8.80

## GGGANANNANGNGNNNGANNGNNNGGANG [26874-29_130]
2NEdU at 10, other dU Tyr-dU, dC Nap-dC, SB18T0.01, 37 C
  pKd: 9.55

## GGGANANNANGNGNNNGANNGNNNGGANG [26874-29_70]
PBndU at 10 (printed sequence lacks Y at 10, F^ in place), other dU Tyr-dU, dC Nap-dC, SB18T0.01, 37 C
  pKd: 9.70

## GGGANANNANGNGNNNGANNGNNNGGANG [26874-29_74]
PBndU at 23, other dU Tyr-dU, dC Nap-dC, low plateau, very faint spots
  pKd: 9.34

## GGGANANNANGNGNNNGANNGNNNGGANG [26874-29_136]
iBudU at 5, other dU Tyr-dU, dC Nap-dC, SB18T0.01, 37 C
  pKd: 9.24

## GGGANANNANGNGNNNGANNGNNNGGANG [26874-29_56]
TrpdU at 5, other dU Tyr-dU, dC Nap-dC, SB18T0.01, 37 C
  pKd: 9.27

## GGGANANNANGNGNNNGANNGNNNGGANG [26874-29_121]
POPdU at 10, other dU Tyr-dU, dC Nap-dC, low plateau
  pKd: 9.38

## GGGANANNANGNGNNNGANNGNNNGGANG [26874-29_83]
PEdU at 14, other dU Tyr-dU, dC Nap-dC, SB18T0.01, 37 C
  pKd: 9.72

## GGGANANNANGNGNNNGANNGNNNGGANG [26874-29_116]
BTdU at 5, other dU Tyr-dU, dC Nap-dC, low plateau
  pKd: 9.28

## ANNANGNGNNNGANNGNNNGGANG [26874-29_25]
[1]
  pKd: 8.74

## GGGANANNANGNGNNNGANNGNNNGGANG [26874-29_149]
BPEdU at 8, other dU Tyr-dU, dC Nap-dC, low plateau
  pKd: 9.33

## GGGANANNANGNGNNNGANNGNNNGGANG [26874-29_106]
MOEdU at 5, other dU Tyr-dU, dC Nap-dC, SB18T0.01, 37 C
  pKd: 9.18
